Test results taken from IntAct's records for PubMed 27599036.

B1: Ferrochelatase, mitochondrial (Homo sapiens), P22830 (parent)
chain: MRSLGANMAAALRAAGVLLRDPLASSSWRVCQPWRWKSGAAAAAVTTETAQHAQGAKPQVQPQKRKPKTGILMLNMGGPETLGDVHDFLLRLFLDRDLMTLPIQNKLAPFIAKRRTPKIQEQYRRIGGGSPIKIWTSKQGEGMVKLLDELSPNTAPHKYYIGFRYVHPLTEEAIEEMERDGLERAIAFTQYPQYSCSTTGSSLNAIYRYYNQVGRKPTMKWSTIDRWPTHHLLIQCFADHILKELDHFPLEKRSEVVILFSAHSLPMSVVNRGDPYPQEVSATVQKVMERLEYCNPYRLVWQSKVGPMPWLGPQTDESIKGLCERGRKNILLVPIAFTSDHIETLYELDIEYSQVLAKECGVENIRRAESLNGNPLFSKALADLVHSHIQSNELCSKQLTLSCPLCVNPVCRETKSFFTSQQL

Variants of: B1
Conditions: with pgrc1_human PGRMC1, O00264
pgrc1_human PGRMC1, O00264, sequence (O00264 whole entry): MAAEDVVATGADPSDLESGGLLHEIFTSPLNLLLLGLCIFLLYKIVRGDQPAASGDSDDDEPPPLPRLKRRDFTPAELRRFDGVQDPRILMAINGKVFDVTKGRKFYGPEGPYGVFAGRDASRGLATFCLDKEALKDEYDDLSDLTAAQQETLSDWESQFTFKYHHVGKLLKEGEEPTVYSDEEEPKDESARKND

Variant	effect of a mutation on the interaction
E343K	disrupting interaction strength
F110A	increasing interaction strength
